From patent US20240360227A1

Columns and labels:
[1] = target: Recombinant human his-tagged IGF R extracellular domain protein (human) (UniProt P08069); experiment: SPR, Ab captured via anti-huIgG Fc, dissociation at pH 6
[2] = target: Recombinant human his-tagged IGF R extracellular domain protein (human) (UniProt P08069); experiment: SPR, Ab captured via anti-huIgG Fc, pH 7.4

B1: VRDN-02100 (antibody, human IgG1, kappa, V domains shown)
VH: QVQLQESGPGLVKPSETLSLTCTVSGYSITGGYLWNWIRQPPGKGLEWIGYISYDGTNNYKPSLKDRVTISRDTSKNQFSLKLSSVTAADTAVYYCARYGRVFFDYWGQGTLVTVSS
VL: DIVMTQSPLSLPVTPGEPASISCRSSQSIVHSNGNTYLQWYLQKPGQSPQLLIYKVSNRLYGVPDRFSGSGSGTDFTLKISRVEAEDVGVYYCFQGSHVPWTFGQGTKVEIKR
Kd [1]: 1.05 nM
koff [1]: 9.16e-05 s⁻¹
kon [1]: 86800 M⁻¹ s⁻¹
Kd [2]: 0.456 nM
koff [2]: 4.85e-05 s⁻¹
kon [2]: 106000 M⁻¹ s⁻¹

B2: VRDN-02019 (antibody, V domains shown)
VH: QVQLQESGPGLVKPSETLSLTCTVSGYSITGGYLWNWIRQPPGKGLEWIGYISYDGTHNYKPSLKDRVTISRDTSKNQFSLKLSSVTAADTAVYYCARYGRVFFDYWGQGTLVTVSS
VL: DIVMTQSPLSLPVTPGEPASISCRSSQSIVHSNGNTYLQWYLQKPGQSPQLLIYKVSNRLYGVPDRFSGSGSGTDFTLKISRVEAEDVGVYYCFQGSHVPWTFGQGTKVEIK
Kd [1]: 1.18 nM
koff [1]: 0.000101 s⁻¹
kon [1]: 85800 M⁻¹ s⁻¹
Kd [2]: 0.549 nM
koff [2]: 5.53e-05 s⁻¹
kon [2]: 101000 M⁻¹ s⁻¹

B3: VRDN-02059 (antibody, V domains shown)
VH: QVQLQESGPGLVKPSETLSLTCTVSGYSITGGYLWNWIRQPPGKGLEWIGYIHYDGTNNYKPSLKDRVTISRDTSKNQFSLKLSSVTAADTAVYYCARYGRVFFDYWGQGTLVTVSS
VL: DIVMTQSPLSLPVTPGEPASISCRSHQSIVHSNGNTYLQWYLQKPGQSPQLLIYKVSNRLYGVPDRFSGSGSGTDFTLKISRVEAEDVGVYYCFQGSHVPWTFGQGTKVEIK
Kd [1]: 0.228 nM
koff [1]: 4.43e-05 s⁻¹
kon [1]: 194000 M⁻¹ s⁻¹

B4: VRDN-02026 (antibody, V domains shown)
VH: QVQLQESGPGLVKPSETLSLTCTVSGYSITGGYLWNWIRQPPGKGLEWIGYISYDGTNNYKPSLKDRVTISRDTSKNQFSLKLSSVTAADTAVYYCARYGRVFHDYWGQGTLVTVSS
VL: DIVMTQSPLSLPVTPGEPASISCRSSQSIVHSNGNTYLQWYLQKPGQSPQLLIYKVSNRLYGVPDRFSGSGSGTDFTLKISRVEAEDVGVYYCFQGSHVPWTFGQGTKVEIK
Kd [1]: 1.64 nM
koff [1]: 6.71e-05 s⁻¹
kon [1]: 40800 M⁻¹ s⁻¹
Kd [2]: 2.4 nM
koff [2]: 9.99e-05 s⁻¹
kon [2]: 41500 M⁻¹ s⁻¹

B5: VRDN-02028 (antibody, V domains shown)
VH: QVQLQESGPGLVKPSETLSLTCTVSGYSITGGYLWNWIRQPPGKGLEWIGYISYDGTNNYKPSLKDRVTISRDTSKNQFSLKLSSVTAADTAVYYCARYGRVFFDHWGQGTLVTVSS
VL: DIVMTQSPLSLPVTPGEPASISCRSSQSIVHSNGNTYLQWYLQKPGQSPQLLIYKVSNRLYGVPDRFSGSGSGTDFTLKISRVEAEDVGVYYCFQGSHVPWTFGQGTKVEIK
Kd [1]: 1.11 nM
koff [1]: 0.000107 s⁻¹
kon [1]: 97000 M⁻¹ s⁻¹
Kd [2]: 0.525 nM
koff [2]: 5.4e-05 s⁻¹
kon [2]: 103000 M⁻¹ s⁻¹

B6: VRDN-02002 (antibody, V domains shown)
VH: QVQLQESGPGLVKPSETLSLTCTVSGHSITGGYLWNWIRQPPGKGLEWIGYISYDGTNNYKPSLKDRVTISRDTSKNQFSLKLSSVTAADTAVYYCARYGRVFFDYWGQGTLVTVSS
VL: DIVMTQSPLSLPVTPGEPASISCRSSQSIVHSNGNTYLQWYLQKPGQSPQLLIYKVSNRLYGVPDRFSGSGSGTDFTLKISRVEAEDVGVYYCFQGSHVPWTFGQGTKVEIK
Kd [1]: 1.11 nM
koff [1]: 9.22e-05 s⁻¹
kon [1]: 83000 M⁻¹ s⁻¹
Kd [2]: 0.992 nM
koff [2]: 0.000104 s⁻¹
kon [2]: 105000 M⁻¹ s⁻¹

B7: VRDN-02016 (antibody, V domains shown)
VH: QVQLQESGPGLVKPSETLSLTCTVSGYSITGGYLWNWIRQPPGKGLEWIGYISYHGTNNYKPSLKDRVTISRDTSKNQFSLKLSSVTAADTAVYYCARYGRVFFDYWGQGTLVTVSS
VL: DIVMTQSPLSLPVTPGEPASISCRSSQSIVHSNGNTYLQWYLQKPGQSPQLLIYKVSNRLYGVPDRFSGSGSGTDFTLKISRVEAEDVGVYYCFQGSHVPWTFGQGTKVEIK
Kd [1]: 1.31 nM
koff [1]: 0.000111 s⁻¹
kon [1]: 84300 M⁻¹ s⁻¹
Kd [2]: 0.346 nM
koff [2]: 3.39e-05 s⁻¹
kon [2]: 98000 M⁻¹ s⁻¹

B8: VRDN-02021 (antibody, V domains shown)
VH: QVQLQESGPGLVKPSETLSLTCTVSGYSITGGYLWNWIRQPPGKGLEWIGYISYDGTNNYKPSLKDRVTISRDTSKNQFSLKLSSVTAADTAVYYCARHGRVFFDYWGQGTLVTVSS
VL: DIVMTQSPLSLPVTPGEPASISCRSSQSIVHSNGNTYLQWYLQKPGQSPQLLIYKVSNRLYGVPDRFSGSGSGTDFTLKISRVEAEDVGVYYCFQGSHVPWTFGQGTKVEIK
Kd [1]: 1.38 nM
koff [1]: 0.000137 s⁻¹
kon [1]: 99200 M⁻¹ s⁻¹
Kd [2]: 0.868 nM
koff [2]: 5.84e-05 s⁻¹
kon [2]: 67300 M⁻¹ s⁻¹

B9: VRDN-02018 (antibody, V domains shown)
VH: QVQLQESGPGLVKPSETLSLTCTVSGYSITGGYLWNWIRQPPGKGLEWIGYISYDGHNNYKPSLKDRVTISRDTSKNQFSLKLSSVTAADTAVYYCARYGRVFFDYWGQGTLVTVSS
VL: DIVMTQSPLSLPVTPGEPASISCRSSQSIVHSNGNTYLQWYLQKPGQSPQLLIYKVSNRLYGVPDRFSGSGSGTDFTLKISRVEAEDVGVYYCFQGSHVPWTFGQGTKVEIK
Kd [1]: 1.26 nM
koff [1]: 0.000108 s⁻¹
kon [1]: 85400 M⁻¹ s⁻¹
Kd [2]: 0.734 nM
koff [2]: 7.79e-05 s⁻¹
kon [2]: 106000 M⁻¹ s⁻¹

B10: VRDN-02017 (antibody, V domains shown)
VH: QVQLQESGPGLVKPSETLSLTCTVSGYSITGGYLWNWIRQPPGKGLEWIGYISYDHTNNYKPSLKDRVTISRDTSKNQFSLKLSSVTAADTAVYYCARYGRVFFDYWGQGTLVTVSS
VL: DIVMTQSPLSLPVTPGEPASISCRSSQSIVHSNGNTYLQWYLQKPGQSPQLLIYKVSNRLYGVPDRFSGSGSGTDFTLKISRVEAEDVGVYYCFQGSHVPWTFGQGTKVEIK
Kd [1]: 1.14 nM
koff [1]: 0.00011 s⁻¹
kon [1]: 96000 M⁻¹ s⁻¹
Kd [2]: 1.22 nM
koff [2]: 0.000118 s⁻¹
kon [2]: 97000 M⁻¹ s⁻¹

B11: VRDN-02001 (antibody, V domains shown)
VH: QVQLQESGPGLVKPSETLSLTCTVSHYSITGGYLWNWIRQPPGKGLEWIGYISYDGTNNYKPSLKDRVTISRDTSKNQFSLKLSSVTAADTAVYYCARYGRVFFDYWGQGTLVTVSS
VL: DIVMTQSPLSLPVTPGEPASISCRSSQSIVHSNGNTYLQWYLQKPGQSPQLLIYKVSNRLYGVPDRFSGSGSGTDFTLKISRVEAEDVGVYYCFQGSHVPWTFGQGTKVEIK
Kd [1]: 1.2 nM
koff [1]: 0.000115 s⁻¹
kon [1]: 96000 M⁻¹ s⁻¹
Kd [2]: 0.495 nM
koff [2]: 5.1e-05 s⁻¹
kon [2]: 103000 M⁻¹ s⁻¹

B12: VRDN-02023 (antibody, V domains shown)
VH: QVQLQESGPGLVKPSETLSLTCTVSGYSITGGYLWNWIRQPPGKGLEWIGYISYDGTNNYKPSLKDRVTISRDTSKNQFSLKLSSVTAADTAVYYCARYGHVFFDYWGQGTLVTVSS
VL: DIVMTQSPLSLPVTPGEPASISCRSSQSIVHSNGNTYLQWYLQKPGQSPQLLIYKVSNRLYGVPDRFSGSGSGTDFTLKISRVEAEDVGVYYCFQGSHVPWTFGQGTKVEIK
Kd [1]: 1.23 nM
koff [1]: 8.97e-05 s⁻¹
kon [1]: 72700 M⁻¹ s⁻¹
Kd [2]: 4.4 nM
koff [2]: 0.00187 s⁻¹
kon [2]: 426000 M⁻¹ s⁻¹

B13: VRDN-02022 (antibody, V domains shown)
VH: QVQLQESGPGLVKPSETLSLTCTVSGYSITGGYLWNWIRQPPGKGLEWIGYISYDGTNNYKPSLKDRVTISRDTSKNQFSLKLSSVTAADTAVYYCARYHRVFFDYWGQGTLVTVSS
VL: DIVMTQSPLSLPVTPGEPASISCRSSQSIVHSNGNTYLQWYLQKPGQSPQLLIYKVSNRLYGVPDRFSGSGSGTDFTLKISRVEAEDVGVYYCFQGSHVPWTFGQGTKVEIK
Kd [2]: 8.23 nM
koff [2]: 0.000775 s⁻¹
kon [2]: 94100 M⁻¹ s⁻¹

B14: VRDN-02024 (antibody, V domains shown)
VH: QVQLQESGPGLVKPSETLSLTCTVSGYSITGGYLWNWIRQPPGKGLEWIGYISYDGTNNYKPSLKDRVTISRDTSKNQFSLKLSSVTAADTAVYYCARYGRHFFDYWGQGTLVTVSS
VL: DIVMTQSPLSLPVTPGEPASISCRSSQSIVHSNGNTYLQWYLQKPGQSPQLLIYKVSNRLYGVPDRFSGSGSGTDFTLKISRVEAEDVGVYYCFQGSHVPWTFGQGTKVEIK
Kd [1]: 0.793 nM
koff [1]: 7.99e-05 s⁻¹
kon [1]: 101000 M⁻¹ s⁻¹
Kd [2]: 0.449 nM
koff [2]: 5.06e-05 s⁻¹
kon [2]: 113000 M⁻¹ s⁻¹

B15: VRDN-02020 (antibody, V domains shown)
VH: QVQLQESGPGLVKPSETLSLTCTVSGYSITGGYLWNWIRQPPGKGLEWIGYISYDGTNHYKPSLKDRVTISRDTSKNQFSLKLSSVTAADTAVYYCARYGRVFFDYWGQGTLVTVSS
VL: DIVMTQSPLSLPVTPGEPASISCRSSQSIVHSNGNTYLQWYLQKPGQSPQLLIYKVSNRLYGVPDRFSGSGSGTDFTLKISRVEAEDVGVYYCFQGSHVPWTFGQGTKVEIK
Kd [1]: 1.03 nM
koff [1]: 9.56e-05 s⁻¹
kon [1]: 93200 M⁻¹ s⁻¹
Kd [2]: 0.544 nM
koff [2]: 5.16e-05 s⁻¹
kon [2]: 94800 M⁻¹ s⁻¹

B16: VRDN-02025 (antibody, V domains shown)
VH: QVQLQESGPGLVKPSETLSLTCTVSGYSITGGYLWNWIRQPPGKGLEWIGYISYDGTNNYKPSLKDRVTISRDTSKNQFSLKLSSVTAADTAVYYCARYGRVHFDYWGQGTLVTVSS
VL: DIVMTQSPLSLPVTPGEPASISCRSSQSIVHSNGNTYLQWYLQKPGQSPQLLIYKVSNRLYGVPDRFSGSGSGTDFTLKISRVEAEDVGVYYCFQGSHVPWTFGQGTKVEIK
Kd [1]: 1.51 nM
koff [1]: 9.5e-05 s⁻¹
kon [1]: 63000 M⁻¹ s⁻¹
Kd [2]: 2.08 nM
koff [2]: 0.000141 s⁻¹
kon [2]: 68000 M⁻¹ s⁻¹

B17: VRDN-02027 (antibody, V domains shown)
VH: QVQLQESGPGLVKPSETLSLTCTVSGYSITGGYLWNWIRQPPGKGLEWIGYISYDGTNNYKPSLKDRVTISRDTSKNQFSLKLSSVTAADTAVYYCARYGRVFFHYWGQGTLVTVSS
VL: DIVMTQSPLSLPVTPGEPASISCRSSQSIVHSNGNTYLQWYLQKPGQSPQLLIYKVSNRLYGVPDRFSGSGSGTDFTLKISRVEAEDVGVYYCFQGSHVPWTFGQGTKVEIK
Kd [1]: 2.85 nM
koff [1]: 0.000121 s⁻¹
kon [1]: 42600 M⁻¹ s⁻¹
Kd [2]: 6.73 nM
koff [2]: 0.000957 s⁻¹
kon [2]: 142000 M⁻¹ s⁻¹
